# Assay results from patent publication US20100210517A1 (RAPTOR PHARMACEUTICAL, published 2010).
# Experiments:
# [1] = target: T1, recombinant mouse VLDLR ectodomain (amino acids 1-798, C-terminal hexahistidine) (mouse, UniProt P98156 28-798); assay: solid-phase binding assay, receptor coated on plate, streptavidin-HRP detection, EDTA-subtracted
# T1 construct: range 1-798; Bought from R&D Systems, NS0-expressed; The printed range starts at 1 and so may count a signal peptide; also called rmVLDLR ectodomain; mVLDLR
# Method: (§1) Solid phase binding assays were carried out as follows. Recombinant murine VLDLR ectodomain (aa 1-798, C-terminal hexahistidine, 1 μg) or rhLRP1 cluster II (aa 786-1165, C-terminal Fc, 1 μg) were bound to Nunc Maxisorp™ 96-well plates in TBS pH 8 supplemented with 5 mM CaCl₂ (TBSC) overnight at 4° C. Wells were washed with TBSC and then blocked with TBSC containing 2% BSA. Peptides were then incubated with the immobilized receptor at a range of concentrations for 2 hours in the above blocking buffer supplemented with 0.05% Tween-20 at room temperature. Identical binding reactions were done in the presence of 50 mM EDTA to provide a measure of non-specific binding. Control wells contained no added peptide. […] Excess streptavidin-HRP or primary antibody was removed and wells washed before incubation with the secondary antibody, when necessary, HRP-conjugated goat anti rabbit IgG (Bio-Rad). Color was developed using TMB reagents (BioRad). Absorption at 450 nm was measured with a microplate spectrophotometer (Molecular Devices). Absorption obtained in the presence of EDTA was subtracted from absorption obtained in the presence of calcium prior to analysis. Data were plotted and Kd values derived by non-linear regression with the assumption of single-site binding (GraphPad Prism).
# [2] = target: T2, recombinant human LRP1 ligand binding cluster II (amino acids 786-1165, C-terminal Fc) (human); assay: as above
# T2 construct: range 786-1165; Bought from R&D Systems, NS0-expressed; also called rhLRP1 cluster II; hrLRP1 cluster II
# Method: as §1
# [3] = target: T2, recombinant human LRP1 ligand binding …; assay: competition ELISA, inhibition of RAP d3 (2 nM) binding to coated LRP1 cluster II-Fc
# Method: (§2) Solid phase binding assays were performed using recombinant human LRP1 cluster II (amino acids 786-1165, with C-terminal Fc tag, 1 μg, R&D Systems, Minneapolis, Minn.) to coat Nunc MAXISORP™ 96-well plates in TBS pH 8 supplemented with 5 mM CaCl₂ (TBSC) overnight at 4° C. Data was generated by ELISA assay. Wells were washed with TBSC and blocked with TBSC containing 2% BSA. […] Control wells contained no added inhibitor. Wells were washed with TBS supplemented with 5 mM CaCl₂ and 0.05% Tween-20. Bound ligand was detected with either anti-S-peptide-HRP conjugate (Abcam, Cambridge, Mass.), anti-α-2-macroglobulin-HRP or anti-PAI-1-HRP. Excess HRP conjugate was removed and wells washed. Color was developed using TMB reagents (BioRad, Hercules, Calif.). Absorption at 450 nm was measured with a microplate spectrophotometer (Molecular Devices, Palo Alto, Calif.).
# [4] = target: T2, recombinant human LRP1 ligand binding …; assay: inhibitor pre-incubated with coated LRP1 cluster II-Fc, washed, then RAP d3 added; inhibition of RAP d3 binding
# Method: as §2
# [5] = target: T2, recombinant human LRP1 ligand binding …; assay: competition ELISA on coated LRP1 cluster II-Fc; competitor called the heterologous ligand (FIG. 14C; the figure legend names uPA-PAI-1)
# Method: as §2
# [6] = target: T3, 8D6 CR12 (CR pair from FDC-8D6 antigen, CD320) (human, UniProt Q9NPF0 53-168); assay: solid-phase binding assay, CR protein coated on plate
# T3 construct: also called FDC-8D6 antigen pair; target CR pair from FDC-8D6 antigen; not shown: N-terminal hexahistidine and S-peptide tags of pET30(+)a
# Method: Control wells contained no added ligand. As an additional control, to determine whether the absence of calcium affected binding, 10 mM EGTA was included in the incubation medium for some samples. […] Excess primary antibody was removed and wells washed before incubation with the secondary antibody, HRP-conjugated goat anti rabbit IgG (Bio-Rad). After washing, TMB substrate solutions (Bio-Rad) were added to detect HRP. Color development was stopped with 1N HCl. Absorption at 450 nm was measured with a microplate spectrophotometer (Molecular Devices). Data were plotted and Kd values derived by non-linear regression with the assumption of single-site binding (GraphPad Prism).
# [7] = target: T3, 8D6 CR12 (CR pair from FDC-8D6 antigen, …); assay: solid-phase assay on the coated FDC-8D6 antigen CR pair, relative binding
# T2 sequence (Q07954 786-1165): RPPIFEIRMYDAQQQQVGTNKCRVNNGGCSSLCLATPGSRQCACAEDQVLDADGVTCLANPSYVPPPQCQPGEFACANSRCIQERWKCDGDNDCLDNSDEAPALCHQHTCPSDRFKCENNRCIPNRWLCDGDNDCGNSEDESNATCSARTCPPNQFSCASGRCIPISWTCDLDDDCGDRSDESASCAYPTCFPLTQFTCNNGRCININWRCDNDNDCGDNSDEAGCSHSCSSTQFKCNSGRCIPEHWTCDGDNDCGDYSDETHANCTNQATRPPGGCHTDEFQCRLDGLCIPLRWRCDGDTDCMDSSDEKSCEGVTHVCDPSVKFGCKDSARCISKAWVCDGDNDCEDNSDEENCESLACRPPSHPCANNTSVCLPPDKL
# T1 sequence (P98156 other isoform, or with tags, fused parts or gaps limits assumed, form in doubt): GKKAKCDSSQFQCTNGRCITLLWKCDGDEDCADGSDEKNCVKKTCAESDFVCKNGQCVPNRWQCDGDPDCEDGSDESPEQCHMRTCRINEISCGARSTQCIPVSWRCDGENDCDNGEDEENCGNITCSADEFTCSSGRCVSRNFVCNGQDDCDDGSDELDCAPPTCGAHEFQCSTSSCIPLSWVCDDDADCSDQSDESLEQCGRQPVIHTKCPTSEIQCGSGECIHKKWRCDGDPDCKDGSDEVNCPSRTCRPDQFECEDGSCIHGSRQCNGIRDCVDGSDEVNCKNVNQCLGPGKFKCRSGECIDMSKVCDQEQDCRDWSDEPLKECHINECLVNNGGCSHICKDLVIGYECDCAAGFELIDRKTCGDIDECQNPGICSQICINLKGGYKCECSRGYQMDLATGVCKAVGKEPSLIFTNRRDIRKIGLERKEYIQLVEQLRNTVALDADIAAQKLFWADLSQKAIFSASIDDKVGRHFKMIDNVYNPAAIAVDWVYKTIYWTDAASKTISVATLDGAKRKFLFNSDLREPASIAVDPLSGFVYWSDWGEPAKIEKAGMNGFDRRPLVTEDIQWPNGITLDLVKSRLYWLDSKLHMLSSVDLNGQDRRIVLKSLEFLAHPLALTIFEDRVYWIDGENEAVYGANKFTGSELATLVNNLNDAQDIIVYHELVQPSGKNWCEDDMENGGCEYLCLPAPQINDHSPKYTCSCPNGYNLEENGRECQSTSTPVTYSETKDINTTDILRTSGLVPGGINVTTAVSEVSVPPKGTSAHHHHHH
# T3 sequence (Q9NPF0 other isoform, or with tags, fused parts or gaps): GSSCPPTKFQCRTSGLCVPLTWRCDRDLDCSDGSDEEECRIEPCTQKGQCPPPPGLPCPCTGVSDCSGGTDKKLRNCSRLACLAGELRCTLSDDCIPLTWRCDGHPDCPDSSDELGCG
binder,measurement,setting,value
"tag-free RAP d3 peptide (amino acids 201-319 of mature human RAP, C-terminal cysteine linked to biotin) (ligand, C-terminal cysteine linked to maleimide-PEO2-biotin, Bacterially expressed, from GeneScript; lacks HNEL; also called full-length RAP d3) LDRLRRVSHQGYSTEAEFEEPRVIDLWDLAQSANLTDKELEAFREELKHFEAKIEKHNHYQKQLEIAHEKLRHAESVGDGERVSRSREKHALLEGRTKELGYTVKKHLQDLSGRISRARC",Kd,[1],1 nM
same,Kd,[2],8 nM
"mRAPc (N-terminal biotin-GGSGG; intramolecular disulfide between C241 and C315 (mature RAP numbering), Synthetic; also called mRAPc peptide; monomeric peptide) peptide: CGFREELKHFEAKIEKHNHYQKQLEIAHEKLRHAESVGDGERVSRSREKHALLEGRTKELGYTVKKHLQDLSGGC",EC50,[3],32 nM
same,Kd,[1],5 nM
same,Kd,[2],10 nM
same,EC50,[4],17 nM
same,EC50,[5],7 nM
"320RAP1 truncated variant (identical truncations as MatRAP1, amino acids 243-313) (ligand, also called truncated form of 320RAP1; not shown: N-terminal hexahistidine and S-peptide tags of pET30(+)a) FREELKHFEAKIESHNHYQKQLEIAHESMRHAESVGYGERMSRSREKHALLEGRTKELGYTVTMHLQDLSG",fold improvement in affinity against the full-length variant,[6],3.5 fold
"320RAP1 (full-length d3 variant) (ligand, Selected by phage panning on the CR pair of FDC-8D6 antigen; not shown: N-terminal hexahistidine and S-peptide tags of pET30(+)a) LDRLRRVSHQGYSTEAEFEEPRVIDLWDLAQSANLTDKELEAFREELKHFEAKIESHNHYQKQLEIAHESMRHAESVGYGERMSRSREKHALLEGRTKELGYTVTMHLQDLSGRISRAR",EC50 (read off the curve),[7],~7 nM
